Reference: US20180199611A1 (UNIVERSITY OF FLORIDA RESEARCH FOUNDATION, published 2018)

Target: T1, I-A(b) MHC II molecule (;mouse, UniProt P14434 24-218; P14483 28-226)
T1 construct: Custom-prepared PE-labeled tetramer
T1 sequence (MHC II alpha): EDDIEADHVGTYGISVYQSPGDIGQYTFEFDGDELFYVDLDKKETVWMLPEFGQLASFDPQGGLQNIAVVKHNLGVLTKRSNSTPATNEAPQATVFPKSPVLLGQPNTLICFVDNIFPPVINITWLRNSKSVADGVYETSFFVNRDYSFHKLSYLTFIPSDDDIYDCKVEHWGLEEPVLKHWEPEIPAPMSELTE
T1 sequence (MHC II beta): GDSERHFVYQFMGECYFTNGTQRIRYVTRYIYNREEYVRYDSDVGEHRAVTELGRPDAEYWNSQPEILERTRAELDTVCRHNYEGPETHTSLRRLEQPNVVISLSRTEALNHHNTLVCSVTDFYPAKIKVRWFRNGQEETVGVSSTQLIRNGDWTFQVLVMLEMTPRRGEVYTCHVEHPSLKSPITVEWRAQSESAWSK
Test: peptide binding to MHC II during preparation of I-A(b) tetramers; method not described

B1: DlaT 245-259 peptide (VAPPAPVAPSAPVAA) (peptide)
peptide: VAPPAPVAPSAPVAA
notes: Synthetic 15-mer; It was loaded in a custom PE-labeled I-A(b) tetramer; also called Tetramer DlaT^245 peptide; pep of dihydrolipoamide acyltransferase
  binding result: binds
